In paper PMC446230 one finds fold HIV-1 binding relative to the parental cells data, which are given here for one substance.

Test [1] concerns the target DC-SIGN (DC-specific intercellular adhesion molecule-3 (ICAM-3)-grabbing nonintegrin) on Raji/DC-SIGN cells (human) (UniProt Q9NNX6). In words: virus adhesion to cells, captured virus measured by p24 ELISA.
For test [2], the target named is DC-SIGN (DC-specific intercellular adhesion molecule-3 (ICAM-3)-grabbing nonintegrin) on K562/DC-SIGN cells (human) (UniProt Q9NNX6). Described as above.

With “R5-tropic HIV-1ADA envelope glycoprotein on pseudotyped HIV-Luc/ADA particles (natural protein)”, the fold HIV-1 binding relative to the parental cells in test [1] amounted to 1.5 fold; in test [2], 1.8 fold.
